Data: publication PMC6892150, “Dimerization of MORC2 through its C-terminal coiled-coil domain enhances chromatin dynamics and promotes DNA repair” (Cell Communication and Signaling : CCS, 2019)

Biological target: the molecule itself
Test: cross-linking; Flag-MORC2 purified from HEK293T, chemical cross-linking, immunoblotting

B1: microrchidia family CW-type zinc finger protein 2 (MORC2), full length, Flag- or HA-tagged (natural protein, human, UniProt Q9Y6X9 1-1032, looked up)
chain: MAFTNYSSLNRAQLTFEYLHTNSTTHEFLFGALAELVDNARDADATRIDIYAERREDLRGGFMLCFLDDGAGMDPSDAASVIQFGKSAKRTPESTQIGQYGNGLKSGSMRIGKDFILFTKKEDTMTCLFLSRTFHEEEGIDEVIVPLPTWNARTREPVTDNVEKFAIETELIYKYSPFRTEEEVMTQFMKIPGDSGTLVIIFNLKLMDNGEPELDIISNPRDIQMAETSPEGTKPERRSFRAYAAVLYIDPRMRIFIHGHKVQTKRLSCCLYKPRMYKYTSSRFKTRAEQEVKKAEHVARIAEEKAREAESKARTLEVRLGGDLTRDSRVMLRQVQNRAITLRREADVKKRIKEAKQRALKEPKELNFVFGVNIEHRDLDGMFIYNCSRLIKMYEKVGPQLEGGMACGGVVGVVDVPYLVLEPTHNKQDFADAKEYRHLLRAMGEHLAQYWKDIAIAQRGIIKFWDEFGYLSANWNQPPSSELRYKRRRAMEIPTTIQCDLCLKWRTLPFQLSSVEKDYPDTWVCSMNPDPEQDRCEASEQKQKVPLGTFRKDMKTQEEKQKQLTEKIRQQQEKLEALQKTTPIRSQADLKKLPLEVTTRPSTEEPVRRPQRPRSPPLPAVIRNAPSRPPSLPTPRPASQPRKAPVISSTPKLPALAAREEASTSRLLQPPEAPRKPANTLVKTASRPAPLVQQLSPSLLPNSKSPREVPSPKVIKTPVVKKTESPIKLSPATPSRKRSVAVSDEEEVEEEAERRKERCKRGRFVVKEEKKDSNELSDSAGEEDSADLKRAQKDKGLHVEVRVNREWYTGRVTAVEVGKHVVRWKVKFDYVPTDTTPRDRWVEKGSEDVRLMKPPSPEHQSLDTQQEGGEEEVGPVAQQAIAVAEPSTSECLRIEPDTTALSTNHETIDLLVQILRNCLRYFLPPSFPISKKQLSAMNSDELISFPLKEYFKQYEVGLQNLCNSYQSRADSRAKASEESLRTSERKLRETEEKLQKLRTNIVALLQKVQEDIDINTDDELDAYIEDLITKGD
notes: MORC2, human, full length (1032 residues by the printed numbering 950-1032 for the C-terminus); Flag-MORC2 and HA-MORC2 are two differently tagged copies of the same full-length protein; each chain carries one tag only; Written as one molecule because they are co-precipitated with each other to show self-association; Flag-MORC2 was the copy purified for cross-linking; HA-MORC2 was the copy …
stoichiometry N: 2
